From IntAct's records for PubMed 31695625

B1: Solute carrier family 2, facilitated glucose transporter member 9 (Homo sapiens), Q9NRM0-2 (parent)
chain: MKLSKKDRGEDEESDSAKKKLDWSCSLLVASLAGAFGSSFLYGYNLSVVNAPTPYIKAFYNESWERRHGRPIDPDTLTLLWSVTVSIFAIGGLVGTLIVKMIGKVLGRKHTLLANNGFAISAALLMACSLQAGAFEMLIVGRFIMGIDGGVALSVLPMYLSEISPKEIRGSLGQVTAIFICIGVFTGQLLGLPELLGKESTWPYLFGVIVVPAVVQLLSLPFLPDSPRYLLLEKHNEARAVKAFQTFLGKADVSQEVEEVLAESRVQRSIRLVSVLELLRAPYVRWQVVTVIVTMACYQLCGLNAIWFYTNSIFGKAGIPPAKIPYVTLSTGGIETLAAVFSGLVIEHLGRRPLLIGGFGLMGLFFGTLTITLTLQDHAPWVPYLSIVGILAIIASFCSGPGGIPFILTGEFFQQSQRPAAFIIAGTVNWLSNFAVGLLFPFIQKSLDTYCFLVFATICITGAIYLYFVLPETKNRTYAEISQAFSKRNKAYPPEEKIDSAVTDGKINGRP
B2: Solute carrier family 2, facilitated glucose transporter member 9 (Homo sapiens), Q9NRM0-1 (parent)
chain: MARKQNRNSKELGLVPLTDDTSHAGPPGPGRALLECDHLRSGVPGGRRRKDWSCSLLVASLAGAFGSSFLYGYNLSVVNAPTPYIKAFYNESWERRHGRPIDPDTLTLLWSVTVSIFAIGGLVGTLIVKMIGKVLGRKHTLLANNGFAISAALLMACSLQAGAFEMLIVGRFIMGIDGGVALSVLPMYLSEISPKEIRGSLGQVTAIFICIGVFTGQLLGLPELLGKESTWPYLFGVIVVPAVVQLLSLPFLPDSPRYLLLEKHNEARAVKAFQTFLGKADVSQEVEEVLAESRVQRSIRLVSVLELLRAPYVRWQVVTVIVTMACYQLCGLNAIWFYTNSIFGKAGIPPAKIPYVTLSTGGIETLAAVFSGLVIEHLGRRPLLIGGFGLMGLFFGTLTITLTLQDHAPWVPYLSIVGILAIIASFCSGPGGIPFILTGEFFQQSQRPAAFIIAGTVNWLSNFAVGLLFPFIQKSLDTYCFLVFATICITGAIYLYFVLPETKNRTYAEISQAFSKRNKAYPPEEKIDSAVTDGKINGRP

Variants of: B1
Conditions: with itm2b_human ITM2B

Row | effect of a mutation on the interaction | Variant
1 | with no effect | MKLSKKDRGEDEESDSAKKKLDWSCSLLVASLAGAFGSSFLYGYNLSVVNAPTPYIKAFYQESWERRHGRPIDPDTLTLLWSVTVSIFAIGGLVGTLIVKMIGKVLGRKHTLLANNGFAISAALLMACSLQAGAFEMLIVGRFIMGIDGGVALSVLPMYLSEISPKEIRGSLGQVTAIFICIGVFTGQLLGLPELLGKESTWPYLFGVIVVPAVVQLLSLPFLPDSPRYLLLEKHNEARAVKAFQTFLGKADVSQEVEEVLAESRVQRSIRLVSVLELLRAPYVRWQVVTVIVTMACYQLCGLNAIWFYTNSIFGKAGIPPAKIPYVTLSTGGIETLAAVFSGLVIEHLGRRPLLIGGFGLMGLFFGTLTITLTLQDHAPWVPYLSIVGILAIIASFCSGPGGIPFILTGEFFQQSQRPAAFIIAGTVNWLSNFAVGLLFPFIQKSLDTYCFLVFATICITGAIYLYFVLPETKNRTYAEISQAFSKRNKAYPPEEKIDSAVTDGKINGRP [N61Q]

Variants of: B1
Conditions: with itm2b_human ITM2B
Remark: another data set of the same source

Row | effect of a mutation on the interaction | Variant
2 | disrupting interaction strength | MKLSKKDRGEDEESDSAKKKLDWSCSLLVASLAGAFGSSFLYGYNLSVVNAPTPYIKAFYQESWERRHGRPIDPDTLTLLWSVTVSIFAIGGLVGTLIVKMIGKVLGRKHTLLANNGFAISAALLMACSLQAGAFEMLIVGRFIMGIDGGVALSVLPMYLSEISPKEIRGSLGQVTAIFICIGVFTGQLLGLPELLGKESTWPYLFGVIVVPAVVQLLSLPFLPDSPRYLLLEKHNEARAVKAFQTFLGKADVSQEVEEVLAESRVQRSIRLVSVLELLRAPYVRWQVVTVIVTMACYQLCGLNAIWFYTNSIFGKAGIPPAKIPYVTLSTGGIETLAAVFSGLVIEHLGRRPLLIGGFGLMGLFFGTLTITLTLQDHAPWVPYLSIVGILAIIASFCSGPGGIPFILTGEFFQQSQRPAAFIIAGTVNWLSNFAVGLLFPFIQKSLDTYCFLVFATICITGAIYLYFVLPETKNRTYAEISQAFSKRNKAYPPEEKIDSAVTDGKINGRP [N61Q]

Variants of: B2
Conditions: with itm2b_human ITM2B

Row | effect of a mutation on the interaction | Variant
3 | with no effect | MARKQNRNSKELGLVPLTDDTSHAGPPGPGRALLECDHLRSGVPGGRRRKDWSCSLLVASLAGAFGSSFLYGYNLSVVNAPTPYIKAFYQESWERRHGRPIDPDTLTLLWSVTVSIFAIGGLVGTLIVKMIGKVLGRKHTLLANNGFAISAALLMACSLQAGAFEMLIVGRFIMGIDGGVALSVLPMYLSEISPKEIRGSLGQVTAIFICIGVFTGQLLGLPELLGKESTWPYLFGVIVVPAVVQLLSLPFLPDSPRYLLLEKHNEARAVKAFQTFLGKADVSQEVEEVLAESRVQRSIRLVSVLELLRAPYVRWQVVTVIVTMACYQLCGLNAIWFYTNSIFGKAGIPPAKIPYVTLSTGGIETLAAVFSGLVIEHLGRRPLLIGGFGLMGLFFGTLTITLTLQDHAPWVPYLSIVGILAIIASFCSGPGGIPFILTGEFFQQSQRPAAFIIAGTVNWLSNFAVGLLFPFIQKSLDTYCFLVFATICITGAIYLYFVLPETKNRTYAEISQAFSKRNKAYPPEEKIDSAVTDGKINGRP [N90Q]
